Laboratory results reported in the supplement of paper PMC12764529.
± gives the half width of the 95% confidence interval.

assay: folding stability dG unfold from trypsin proteolysis; higher = more stable
In short: (§1)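 K50 was inferred by Bayesian fitting of sequencing counts obtained after protease digestion of designed mini-proteins. Unfolding free energy was derived by comparison with a sequence-predicted unfolded-state K50 and a shared folded-state K50, for each protease or both combined. The mini-proteins were under 80 residues, had no cysteine, were carried in a PA-tagged cDNA display construct, and were kept only if AlphaFold2 dimer inter-PAE exceeded 15.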

“SKEEEEEIEIEIVVPNLTEEEIKELAKELLEKKGYEVEEIEITEEELEELKNKKPGDEVVIKIKIKVKKKSA [r9_1163_TrROS_Hall]” and “SDKIKNMTIEEILKKLPKGVKVGEKVEIEIDGKKITITKVEVVKDKNGKEIKRIYIEVEIDGEKIIIEIESA [r9_279_TrROS_Hall]” are within error of each other in “folding stability dG unfold” value: 2.51 ± 0.19 kcal/mol for the first, 2.39 ± 0.23 kcal/mol for the second.

Compared with “SAGGVPVPPEVEYPISPEAVELAEKLAPELGAKNFKVTVVSVEPGYITVEITLPDTGKTVTVTIPLGSAGGS [r16_281_JUSTAS]”, “SAGGSAGGNMIPVKARMKWPDGKEFPFEIMVQYQPDGQMQIEIQNPGDGETVTFPNMKLIDVEISAGGSAGG [r6_255_TrROS]” is lower in “folding stability dG unfold” value: 1.5 ± 0.041 kcal/mol for the first, -0.656 ± 0.26 kcal/mol for the second.

First: SAGGSPVLKVEVFELEEDKLLLKIYFPKEEAGLTPEQKEALAKAIQELFPNTKAFTTDEELYIVVDSAGGSA [r2_256_TrMRF]
Second: SAGKKIKLELYFEENGLKVEVEFDEETGVITVKVELKDGTRIEAKFELLPDGTLKLEIKIEKVKPGEKPSAG [r5_766_TrROS_Hall]
The “folding stability dG unfold” value of the first is lower: 2.06 ± 0.075 kcal/mol for the first, 2.94 ± 0.15 kcal/mol for the second.

“SAGGSAGGSAGGMPADEKVTTSPEIVTLPNGTRVVVTKSTSPDPSVSSTSVTVLPPNVPPSAGGSAGGSAGG [r11_338_JUSTAS]” and “SAGGSAMLRVFEKEHPGPFSITVLAGPGLSEEEIEELAEKLAEKKIEIEKKKIELEKKGKKPIFKKSAGGSA [r15_704_JUSTAS]” are within error of each other in “folding stability dG unfold” value: 0.393 ± 0.029 kcal/mol for the first, 0.327 ± 0.21 kcal/mol for the second.

Compared with “SAGGSAGGSAGGWVIRVTIKHPNGKKRTIMIPMPPDNIEEVAKNLMPQGYEIKEPEIFPGSAGGSAGGSAGG [r7_159_TrROS]”, “SAGGKKVEITIEASPEEAEELAKKLEELFPDVKVEVVEVKPEEPVRVTVRVEVKVELSPEELKKLLESAGGS [r16_180_TrROS_Hall]” is higher in “folding stability dG unfold” value: 0.295 ± 0.12 kcal/mol for the first, 1.45 ± 0.085 kcal/mol for the second.

Going from “SAKKTITITKITLTLFNKDGKPVATAEITSIEITYDPKTNTFTITATVKVTLPNGKTFTFKLTITLPVKSAG [r14_609_TrROS_Hall]” to “SAGGSAGGSAGFFRVDIDIMMSPEMLDLMKKNPGLPPGQEIPIMVVIKREPVPYDPNGKLSAGGSAGGSAGG [r17_194_TrROS]”, the “folding stability dG unfold” value falls from 3.91 ± 0.18 kcal/mol to 1.375 ± 0.013 kcal/mol.

Compared with “SAGGSSPLLSPVTLTREVPASEPMAPEEVEAFAAAVAAEVAAAGMTVDFSVERHPDREVLTVTVTVASSAGG [r13_442_JUSTAS]”, “SAGATATPPAVRVATARLPLPFGTGTEVTVTTYSDGSATVTARFPDGVVATAFVSPDGSAVVTVAPAGGSAG [r5_168_TrMRF]” is higher in “folding stability dG unfold” value: -0.372 ± 0.1 kcal/mol for the first, 0.992 ± 0.064 kcal/mol for the second.

Going from “SAGGMPEDMKLKFKVVDFRPHPHPDGYQIVELFYNDKLLRRLRVPPGLAVKLAKELPEDVALVTLPESAGGS [r8_41_TrMRF]” to “SAGGSAGGSALEVPSNYLVEVRFPNETRLIPVEDLDAFFEAYPDVPWTDIRVLDPKTGKPISAGGSAGGSAG [r3_134_TrMRF]”, the “folding stability dG unfold” value rises from 0.828 ± 0.086 kcal/mol to 2.47 ± 0.04 kcal/mol.

First: SAGGSAGGSAGKAKIEVVEVDKNGKVRLKIKLENGEVKEIENADEITINGKKIKVEKIEPSAGGSAGGSAGG [r11_1017_TrROS_Hall]
Second: SAGGSAGGSKYYRVRFKEEIEITLENGEKLKIKKGDVIVVPSKEDLDRLKALFPNLEVEVEPVSAGGSAGGS [r12_987_TrROS_Hall]
The “folding stability dG unfold” value of the first is lower: -0.311 ± 0.25 kcal/mol for the first, 3.16 ± 0.1 kcal/mol for the second.

First: SVEKARERLEKLGFKLVSVDPLEDGSVVLTFEFPDNKVVVLVDEDGNARIVAYNPSDGKFSEATFNLDDLSA [r9_2_TrMRF]
Second: SAGGSAGGSAGLEIKIPNGNKTITVEKTKDYYKATIYFPETGEKVEFTFPPNVSLSLLDISAGGSAGGSAGG [r11_772_TrMRF]
The “folding stability dG unfold” value of the first is higher: 2.84 ± 0.066 kcal/mol for the first, 1.98 ± 0.11 kcal/mol for the second.

With “SAGGSAGGSAGPIDPNSTRPVPADYVVIRIRGDEKPRYFVVHPEYAKEFAERHGAELYYESAGGSAGGSAGG [r17_109_TrMRF]” the “folding stability dG unfold” value was 0.0223 ± 0.14 kcal/mol.

assay: folding stability dG unfold (combined trypsin and chymotrypsin); higher = more stable
In short: as §1

Going from “SAGGKKNEKKPIEIDGVFFNPETGKLVKIGPAKIIVPKNAKIELEAEVFDPVTGEVKKVKFKFELPAGSAGG [r13_206_TrMRF]” to “SATKTITIELPVDVPVEVLKEFFEALGFTEMEFYETEDPRTLVVRFTVPGDPVTVIVIVRPLPVPPDEPLSA [r9_1090_TrMRF]”, the “folding stability dG unfold” value rises from 0.699 ± 0.14 kcal/mol to 3.55 ± 0.12 kcal/mol.

“SMTTTTLPDGTTVTTLSDGTVKTVTHYPDSVVTETSPITYKLPDGREFTTKEEAEAYEKETGIPVSPALASA [r9_660_JUSTAS]” and “SAGGKTIYFPISEARNFLKEAIDNGLDNIRIEVFNGDKPREIDIPPGNLDDLIDNIPPNSWVQIEPKSAGGS [r16_636_TrROS]” are within error of each other in “folding stability dG unfold” value: 0.4 ± 0.16 kcal/mol for the first, 0.221 ± 0.072 kcal/mol for the second.

“SAGGMVIEKDGDYEYVLLLVDSPEGFPVEVAKELLKKEFGLKEIKVLSAKPLPNGIRLVLVKNKFEKSAGGS [r16_234_TrMRF]” and “SAPPRTFIIPIERNPDGNVRLNIRMPGMEIEYEFPPGKDAEDALDKLSPHPGFNVELTEVDPNWIKITFSAG [r14_404_TrROS]” are within error of each other in “folding stability dG unfold” value: 1.3 ± 0.052 kcal/mol for the first, 1.28 ± 0.48 kcal/mol for the second.

“SAGGSAGGDRIKIRFPDYRYEIEIPPGIESITTIQFHKDGWFTLTIPGNGQQIKIPIPPPDDDPSAGGSAGG [r6_370_TrROS]” and “SNYLMIRIKEIDPNNPNKIKIEDIHPMPDNGNVQINIEHPGQEIYVMFNSADDAEEFINTLLKNYGLKPESA [r9_258_TrROS]” are within error of each other in “folding stability dG unfold” value: 1.51 ± 0.24 kcal/mol for the first, 1.33 ± 0.098 kcal/mol for the second.

Compared with “SAGGSFEVEVEVERYPEENYYYVKIPIRLPNNGKKIPLDVPVPADDPEPAEKWAKFIAKELAKQGISAGGSA [r2_221_TrROS]”, “SAGGSAGGSAGDLLKEALEEAKKAGIKTATITVEVDGKLYTLTVKLEPKPPPKEVKVEKKSAGGSAGGSAGG [r17_475_TrROS_Hall]” is higher in “folding stability dG unfold” value: -0.1 ± 0.23 kcal/mol for the first, 0.526 ± 0.38 kcal/mol for the second.
